This passage reports binding result and Kd results from paper PMC4695337, “Crystal Structure of a Eukaryotic GEN1 Resolving Enzyme Bound to DNA”.

Data set [1] has as its target T1, CtGEN1 (Chaetomium thermophilum? (printed C. …, UniProt G0RYN2 1-487)).
T1 sequence: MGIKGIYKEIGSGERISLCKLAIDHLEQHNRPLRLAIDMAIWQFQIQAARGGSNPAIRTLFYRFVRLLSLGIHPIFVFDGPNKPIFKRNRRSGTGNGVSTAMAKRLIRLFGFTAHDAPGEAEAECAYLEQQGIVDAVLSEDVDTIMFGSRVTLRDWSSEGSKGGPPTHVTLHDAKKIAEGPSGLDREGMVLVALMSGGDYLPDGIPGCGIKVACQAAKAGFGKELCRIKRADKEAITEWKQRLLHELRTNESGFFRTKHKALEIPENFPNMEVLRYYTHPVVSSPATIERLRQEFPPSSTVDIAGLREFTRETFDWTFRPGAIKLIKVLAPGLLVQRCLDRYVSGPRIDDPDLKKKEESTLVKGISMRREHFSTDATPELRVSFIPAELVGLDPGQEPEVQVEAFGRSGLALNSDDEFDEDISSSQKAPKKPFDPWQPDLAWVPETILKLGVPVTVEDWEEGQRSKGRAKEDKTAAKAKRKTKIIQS
In words: crystal structure; Mg2+ (2 mM MgCl2); EMSA fitted to Hill equation, protein 2.1-43 nM (monomer); binding buffer and temperature not in material. Crystals: 100 mM HEPES pH 7.5, 2 mM MgCl2, 20% PEG10000, 7 C. Conditions: protein: recombinant; tags: C-terminal His6; r strand 1-14 paired with h 17-30 (14 bp); r 16-30 paired with x 1-15 (15 bp); mismatch r15/x16. (A gel shift assay detects complexes by their altered migration in electrophoresis.)

In data set [2] the target is T1, CtGEN1. In words: EMSA; EMSA fitted to Hill equation, protein 2.1-43 nM (monomer); binding buffer and temperature not in material. Crystals: 100 mM HEPES pH 7.5, 2 mM MgCl2, 20% PEG10000, 7 C. Conditions: protein: recombinant; tags: C-terminal His6; four-way junction of 4 strands (b/h/r/x).
The target of data set [3] is T2, CtGEN1 D141A (Chaetomium thermophilum? (printed C. …, UniProt G0RYN2 1-487, D141A)).
T2 sequence: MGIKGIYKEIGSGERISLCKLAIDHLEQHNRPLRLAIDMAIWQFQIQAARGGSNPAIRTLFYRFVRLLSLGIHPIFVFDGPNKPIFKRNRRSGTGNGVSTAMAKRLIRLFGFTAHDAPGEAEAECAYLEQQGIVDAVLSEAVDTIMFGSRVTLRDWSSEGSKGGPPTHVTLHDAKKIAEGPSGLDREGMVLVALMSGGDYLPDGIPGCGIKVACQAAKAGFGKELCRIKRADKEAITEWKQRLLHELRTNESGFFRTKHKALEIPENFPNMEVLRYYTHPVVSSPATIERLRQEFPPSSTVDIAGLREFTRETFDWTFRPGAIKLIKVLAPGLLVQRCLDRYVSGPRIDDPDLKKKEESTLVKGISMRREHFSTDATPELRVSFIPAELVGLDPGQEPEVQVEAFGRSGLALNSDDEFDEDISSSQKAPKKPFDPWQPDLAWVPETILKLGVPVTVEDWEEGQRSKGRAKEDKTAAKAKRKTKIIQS
The description is as above. Conditions: protein: recombinant; tags: C-terminal His6; chain copies: 2; four-way junction of 4 strands (b/h/r/x).

In data set [4] the target is T3, CtGEN1 E122A (Chaetomium thermophilum? (printed C. …, UniProt G0RYN2 1-487, E122A)).
T3 sequence: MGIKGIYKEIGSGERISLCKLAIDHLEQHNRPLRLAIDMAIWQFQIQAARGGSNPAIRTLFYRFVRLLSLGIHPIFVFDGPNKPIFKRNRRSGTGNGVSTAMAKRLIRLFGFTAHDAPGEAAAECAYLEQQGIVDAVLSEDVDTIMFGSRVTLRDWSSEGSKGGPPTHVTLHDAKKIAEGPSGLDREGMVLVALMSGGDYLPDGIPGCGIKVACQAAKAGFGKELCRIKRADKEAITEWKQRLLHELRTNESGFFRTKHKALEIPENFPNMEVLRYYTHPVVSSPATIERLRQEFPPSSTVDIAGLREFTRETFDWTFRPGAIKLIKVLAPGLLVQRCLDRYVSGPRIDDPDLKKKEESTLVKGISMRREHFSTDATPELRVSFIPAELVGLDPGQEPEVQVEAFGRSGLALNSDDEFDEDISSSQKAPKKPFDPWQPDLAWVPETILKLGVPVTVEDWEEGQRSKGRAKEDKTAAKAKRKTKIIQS
The data set is described as above. The conditions noted are these: protein: recombinant; tags: C-terminal His6; chain copies: 2; four-way junction of 4 strands (b/h/r/x).

The target in data set [5] is T4, CtGEN1 E120A (Chaetomium thermophilum? (printed C. …, UniProt G0RYN2 1-487, E120A)).
T4 sequence: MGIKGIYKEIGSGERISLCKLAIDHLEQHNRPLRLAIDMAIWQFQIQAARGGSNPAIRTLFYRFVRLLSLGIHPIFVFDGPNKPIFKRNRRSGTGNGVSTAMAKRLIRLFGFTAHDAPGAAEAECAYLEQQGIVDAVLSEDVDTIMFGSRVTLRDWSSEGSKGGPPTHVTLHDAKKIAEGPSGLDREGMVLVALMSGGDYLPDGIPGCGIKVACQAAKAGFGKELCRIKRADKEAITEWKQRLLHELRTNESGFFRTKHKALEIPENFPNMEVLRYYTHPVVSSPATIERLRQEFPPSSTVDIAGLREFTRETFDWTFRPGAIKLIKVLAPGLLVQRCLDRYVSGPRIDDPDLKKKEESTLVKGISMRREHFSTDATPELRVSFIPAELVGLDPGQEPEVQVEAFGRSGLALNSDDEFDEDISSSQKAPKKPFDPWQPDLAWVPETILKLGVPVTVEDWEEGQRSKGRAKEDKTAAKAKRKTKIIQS
The data set is described as above. The conditions noted are these: protein: recombinant; tags: C-terminal His6; chain copies: 2; four-way junction of 4 strands (b/h/r/x).

Data set [6] deals with T5, CtGEN1 D38A (Chaetomium thermophilum? (printed C. …, UniProt G0RYN2 1-487, D38A)).
T5 sequence: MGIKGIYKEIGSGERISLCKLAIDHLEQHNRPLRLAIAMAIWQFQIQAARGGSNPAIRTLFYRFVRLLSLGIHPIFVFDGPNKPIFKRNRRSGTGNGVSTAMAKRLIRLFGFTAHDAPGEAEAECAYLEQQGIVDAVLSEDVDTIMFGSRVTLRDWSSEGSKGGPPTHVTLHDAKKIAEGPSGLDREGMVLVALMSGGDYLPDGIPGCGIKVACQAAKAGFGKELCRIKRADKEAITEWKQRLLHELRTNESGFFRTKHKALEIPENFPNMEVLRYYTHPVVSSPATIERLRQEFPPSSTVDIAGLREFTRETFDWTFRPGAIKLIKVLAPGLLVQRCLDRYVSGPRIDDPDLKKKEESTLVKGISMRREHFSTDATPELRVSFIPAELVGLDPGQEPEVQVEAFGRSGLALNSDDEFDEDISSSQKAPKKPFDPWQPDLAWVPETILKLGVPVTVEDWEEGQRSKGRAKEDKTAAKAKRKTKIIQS
Described as above. Conditions: protein: recombinant; tags: C-terminal His6; chain copies: 2; four-way junction of 4 strands (b/h/r/x).

In data set [7] the target is T6, CtGEN1 D143A (Chaetomium thermophilum? (printed C. …, UniProt G0RYN2 1-487, D143A)).
T6 sequence: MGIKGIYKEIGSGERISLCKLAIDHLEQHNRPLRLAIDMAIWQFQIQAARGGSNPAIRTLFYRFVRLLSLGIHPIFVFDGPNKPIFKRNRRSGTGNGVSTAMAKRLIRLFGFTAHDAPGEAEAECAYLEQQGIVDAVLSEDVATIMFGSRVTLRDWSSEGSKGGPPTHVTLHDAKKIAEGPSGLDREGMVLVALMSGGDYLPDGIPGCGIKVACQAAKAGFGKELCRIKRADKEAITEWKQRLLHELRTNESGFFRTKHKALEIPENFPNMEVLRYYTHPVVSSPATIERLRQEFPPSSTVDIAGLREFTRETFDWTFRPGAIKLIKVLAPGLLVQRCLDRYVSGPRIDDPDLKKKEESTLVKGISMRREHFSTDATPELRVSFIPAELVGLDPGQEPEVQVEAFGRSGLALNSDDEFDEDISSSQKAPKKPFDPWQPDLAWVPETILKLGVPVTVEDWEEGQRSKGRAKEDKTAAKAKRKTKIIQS
The description is as above. Conditions: protein: recombinant; tags: C-terminal His6; chain copies: 2; four-way junction of 4 strands (b/h/r/x).

Data set [8] concerns the target T7, CtGEN1 D79A (Chaetomium thermophilum? (printed C. …, UniProt G0RYN2 1-487, D79A)).
T7 sequence: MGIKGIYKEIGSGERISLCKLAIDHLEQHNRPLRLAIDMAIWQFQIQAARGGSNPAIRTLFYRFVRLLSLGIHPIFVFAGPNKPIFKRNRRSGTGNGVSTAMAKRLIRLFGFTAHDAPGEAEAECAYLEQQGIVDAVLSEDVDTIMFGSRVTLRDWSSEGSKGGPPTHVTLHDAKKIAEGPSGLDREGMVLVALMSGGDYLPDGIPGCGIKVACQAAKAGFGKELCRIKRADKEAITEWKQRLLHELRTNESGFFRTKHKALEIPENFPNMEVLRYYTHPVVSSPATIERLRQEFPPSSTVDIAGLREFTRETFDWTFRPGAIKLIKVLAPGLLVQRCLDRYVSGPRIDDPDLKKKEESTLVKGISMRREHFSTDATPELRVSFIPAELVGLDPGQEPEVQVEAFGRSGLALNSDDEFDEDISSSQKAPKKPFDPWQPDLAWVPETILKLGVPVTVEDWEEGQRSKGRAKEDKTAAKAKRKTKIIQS
The description is as above. Conditions: protein: recombinant; tags: C-terminal His6; chain copies: 2; four-way junction of 4 strands (b/h/r/x).

For data set [9], the target named is T1, CtGEN1. In words: crystal structure; Mn2+ (1 mM MnCl2 soak); EMSA fitted to Hill equation, protein 2.1-43 nM (monomer); binding buffer and temperature not in material. Crystals: 100 mM HEPES pH 7.5, 2 mM MgCl2, 20% PEG10000, 7 C. The conditions noted are these: protein: recombinant; tags: C-terminal His6; 14 bp with 3' overhang 1 nt on r strand.

What is called Kd is the equilibrium constant for the complex coming apart.

B1: junction 3 resolution product (crystal) (structured_DNA)
DNA 1: TCCAACCACCGCTCAACTCAACTGCAGTCT
DNA 2: GAGCGGTGGTTGGA
DNA 3: AGACTGCAGTTGAGTC
modifications: 5'-phosphate at cleaved 5' end of h strand product
For B1, the binding result in data set [1] is recorded as “binds”.

B2: four-way junction 3 (50 nt strands) (structured_DNA)
DNA 1: GGCTAAGGGATCCGTCCTAGCAAGGGGCTGCTACCGGAGGCTTACATCGG
DNA 2: CCGATGTAAGCCTCCGGTAGCAGCCTGAGCGGTGGTTGGATGTTGACTGC
DNA 3: GCAGTCAACATCCAACCACCGCTCAACTCAACTGCAGTCTAGATGGACTG
DNA 4: CAGTCCATCTAGACTGCAGTTGAGTCCTTGCTAGGACGGATCCCTTAGCC
In the case of B2, the equilibrium dissociation constant (Kd) in data set [2] was 7.7 ± 0.01 nM; in data set [3], 10 ± 0.01 nM; in [4], 4.6 ± 0.04 nM; in data set [5] it was 6.5 ± 0.1 nM; in [6], 6.2 ± 0.05 nM; in data set [7] it was 7.1 ± 0.01 nM. Also, the equilibrium dissociation constant (Kd) in data set [8] came out at 5.9 ± 0.05 nM.

B3: R-stem duplex as modeled in 5CNQ (dsDNA)
DNA 1: TCCAACCACCGCTCA
DNA 2: GAGCGGTGGTTGGA
modifications: 5'-phosphate at cleaved 5' end of h strand product
With B3, the binding result in data set [9] is recorded as “binds”.
